Source: patent US8889130B2, “Treatment of osteoarthritis and pain” (Abbvie Inc., priority 2011, dated 2014)
Values belong to the molecule of their own block, whether it stands above or below them.

Tests used:
DMM mice = assay: DMM model of osteoarthritis, mechanical allodynia (paw withdrawal threshold); format: in vivo, mouse; conditions: Example 5 (FIG. 12); 6 mg/kg ip twice per week for four weeks; day 28
Experimental: The DMM model also generates measurable pain in the mice. […] The efficacy of anti-IL-1α/β therapy was studied in the DMM animal model.
The potential of anti-IL-1 therapy to ameliorate pain was tested in the DMM mouse model of OA in terms of mechanical allodynia. Dosing of the combination of IL-1α and IL-1β mAbs was initiated on the day of the surgery and was repeated twice a week for 5 weeks. Animals were treated with PBS vehicle alone, with an IgG isotype control, or with a combination of anti-IL-1α and anti-IL-1β mAbs (at a dose of 6 mg/kg for each mAb). Animals were tested weekly for paw withdrawal threshold. […] This reduction in pain was seen as early as week 1 following treatment (data not shown).
To evaluate the effect of IL-1 therapy in established pain, animals in the IgG control group with established OA and mechanical allodynia were treated on day 35 with the combination of anti-IL-1α and anti-IL-1β monoclonal antibodies and the paw withdrawal threshold was tested 24 hours later (day 36).
The potential of anti-IL-1 therapy to ameliorate pain in the DMM mouse model of OA (see, above) in terms of mechanical allodynia was further evaluated. Dosing of the combination of IL-1α and IL-1β mAbs was initiated on the day of the surgery and was repeated twice a week for 4 weeks. […]

hIL-1β = hIL-1β (Homo sapiens, UniProt P01584); assay: Tetravalent dual-specific antigen binding by Biacore (sequential antigen injection), hIL-1β; conditions: for Response Unit, 1st antigen hIL-1β: hIL-1β injected as 1st antigen on captured DVD-Ig; for Response Unit, 2nd antigen hIL-1β: hIL-1β injected as 2nd antigen after hIL-1α
hIL-1β, sequence (P01584 117-269): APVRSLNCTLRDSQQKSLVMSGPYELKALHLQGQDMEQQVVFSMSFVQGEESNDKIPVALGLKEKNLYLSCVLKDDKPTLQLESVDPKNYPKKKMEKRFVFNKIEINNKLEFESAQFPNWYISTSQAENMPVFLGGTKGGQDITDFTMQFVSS
Experimental: (§1) The kinetics of DVD-Ig molecules binding to rhIL1-α and rhIL1-β was determined by surface plasmon resonance-based measurements with a Biacore 3000 instrument (Biacore AB, Uppsala, Sweden) using HBS-EP (10 mM HEPES, pH 7.4, 150 mM NaCl, 3 mM EDTA, and 0.005% surfactant P20) at 25° C. All chemicals were obtained from Biacore AB (Uppsala, Sweden) or otherwise from a different source as described herein. Approximately, 5000 RU of goat anti-human IgG Fcγ fragment specific polyclonal antibody (Pierce Biotechnology Inc, Rockford, Ill.) diluted in 10 mM sodium acetate (pH 4.5) was directly immobilized across a CM5 research grade biosensor chip using a standard amine coupling kit according to manufacturer's instructions and procedures at […]. Unreacted moieties on the biosensor surface were blocked with ethanolamine. Modified carboxymethyl dextran surface in flowcell 2 and 4 was used as a reaction surface. Unmodified carboxymethyl dextran without goat anti-human IgG in flow cell 1 and 3 was used as the reference surface. For kinetic analysis, rate equations derived from the 1:1 Langmuir binding model were fitted simultaneously to association and dissociation phases of all ten injections (using global fit analysis) using the Bioevaluation 4.0.1 software. Purified DVD-Ig samples were diluted in HEPES-buffered saline for capture across goat anti-human IgG Fc specific reaction surfaces and injected over reaction matrices at a flow rate of […]. The association and dissociation rate constants, kon (M-1s-1) and koff (s-1) were determined under a continuous flow rate of […]. Rate constants were derived by making kinetic binding measurements at ten different antigen concentrations ranging from 1.25 to 1000 nM. The equilibrium dissociation constant (M) of the reaction between DVD-Ig molecule and rhIL1α/β was then calculated from the kinetic rate constants by the following formula: KD=koff/kon. Aliquots of rhIL1α/β samples were also simultaneously injected over a blank reference and reaction CM surface to record and subtract any nonspecific binding background to eliminate the majority of the refractive index change and injection noise. Surfaces were regenerated with two subsequent […] injections of 10 mM Glycine (pH 1.5) at a flow rate of […]. The anti-Fc antibody immobilized surfaces were completely regenerated and retained their full capture capacity over twelve cycles. The apparent stoichiometry of the captured DVD-Ig-rhIL1α/β complex was calculated under saturating binding conditions (steady-state equilibrium) using the following formula: […]
In addition, tetravalent dual-specific antigen binding of DVD-Ig binding protein was also analyzed by Biacore (Table 14). DVD-Ig binding protein was first captured via a goat anti-human Fc antibody on the Biacore sensor chip, and the first antigen was injected and a binding signal observed. As the DVD-Ig binding protein was saturated by the first antigen, the second antigen was then injected and the second signal observed. This was done either by first injecting IL-1β then IL-1α or by first injecting IL-1α followed by IL-1β for DVD2-Ig binding protein. In either sequence, a dual-binding activity was detected. Similar results were obtained for DVD1-Ig binding protein. Thus, each DVD-Ig binding protein was able to bind both antigens simultaneously as a dual-specific tetravalent molecule. […] Upon the injection of the second antigen, while DVD-Ig binding protein was already occupied by the first antigen, the stoichiometry of both DVD-Igs binding protein to the second antigen (i.e., hIL-1α or hIL-1β was between 1.0 and 1.3. Thus, DVD-Ig binding protein was able to bind two IL-1α and two IL-β molecules. DVD-Ig binding protein was first captured via a goat anti-human Fc antibody on the Biacore sensor chip, and the first antigen was injected and a binding signal observed, followed by the injection of the second antigen.

hIL-1α = target: T1, hIL-1α (Homo sapiens, UniProt P01583); assay: Surface plasmon resonance (Biacore) binding kinetics and affinity to hIL-1α; conditions: antigen hIL-1α; for Kd: KD=koff/kon
T1 sequence (P01583 113-271): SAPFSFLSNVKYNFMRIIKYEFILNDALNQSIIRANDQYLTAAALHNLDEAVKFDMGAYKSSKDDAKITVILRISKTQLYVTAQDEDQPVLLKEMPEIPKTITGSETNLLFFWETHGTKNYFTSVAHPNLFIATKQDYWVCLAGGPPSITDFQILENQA
Experimental: as §1

[1] = hIL-1β injected as 2nd antigen, DVD-Ig already saturated with hIL-1α

B1: 10G11: mouse anti-mouse IL-1β monoclonal antibody (clone 10G11) from IL-1α/β double KO mice (antibody, V domains shown)
VH: EVQLQQSGPELVKPGTSVKMSCKTSGYTFTSYVMHWVKQKPGQGLEWIGYIIPYNDNTKYNEKFKGKATLTSDKSSSTAYMELSSLTSEDSAVYYCARRNEYYGSSFFDYWGQGTTLTVSS
VL: DIQMTQSPASLSASVGETVTITCRGSGILHNYLVWYQQKQGKSPQLLVYSAKILADGVPSRFSGSGSGTQYSLKINSLQPEDFGSYYCQHFWSTPFTFGSGTKLEIKR
modifications: heavy chain variable domain of 10G11; light chain variable domain of 10G11
notes: mouse anti-mouse IL-1β monoclonal antibody (clone 10G11) from IL-1α/β double KO mice
- paw withdrawal threshold (allodynia) (DMM mice): allodynic (painful)

- Response Unit, 1st antigen hIL-1β (hIL-1β): 159 Response Unit
- Response Unit, 2nd antigen hIL-1β (hIL-1β): hIL-1β: 137 Response Unit
- Stoichiometry hIL-1β:DVD-Ig (hIL-1β; [1]): 1.3
- koff (hIL-1α): 0.000252 s⁻¹
- kon (hIL-1α): 73500 M⁻¹ s⁻¹
- Kd (hIL-1α): 3.42 nM
B2: DVD2-Ig: DVD-Ig as DVD1-Ig but with linkers ADAAP (light chain) and AKTTPP (heavy chain) (antibody)
VH: MQLSGLTSEDSAMYFCVRFPTGNDYYAMDYWGQGTSVTVSSAKTTPPQIQLVQSGPELKKPGETVKISCKASGYTFRNYGMNWVKQAPGKDLKRMAWINTYTGESTYADDFKGRFAFSLETSASTAYLQINNLKNEDTATYFCARGIYYYGSSYAMDYWGQGTSVTVSS
VL: PVEADDAATYYCQQNNEDPFTFGSGTKLEIKRADAAPNIQMTQTTSSLSASLGDRVTISCRASQDISNCLNWYQQKPDGTVKLLIYYTSRLHSGVPSRFSGSGSGTDYSLTISNLEQEDIATYFCQQGKTLPYAFGGGTKLEINR

- Stoichiometry hIL-1β:DVD-Ig (hIL-1β; hIL-1β injected as 1st antigen): 1.5
- Response Unit, 1st antigen hIL-1β (hIL-1β): 141 Response Unit
- Response Unit, 2nd antigen hIL-1β (hIL-1β): hIL-1β: 75 Response Unit
- Stoichiometry hIL-1β:DVD-Ig (hIL-1β; [1]): 1.0
- koff (hIL-1α): 0.000105 s⁻¹
- kon (hIL-1α): 37000 M⁻¹ s⁻¹
- Kd (hIL-1α): 2.83 nM
- Stoichiometry (hIL-1α; saturating binding conditions): 1.8
B3: DVD1-Ig: DVD-Ig binding hIL-1α and hIL-1β; VH/VL of 13F5.G5 fused directly to N-terminus of 3D12.E3 VH/VL, no linker (antibody)
VH: MQLSGLTSEDSAMYFCVRFPTGNDYYAMDYWGQGTSVTVSSQIQLVQSGPELKKPGETVKISCKASGYTFRNYGMNWVKQAPGKDLKRMAWINTYTGESTYADDFKGRFAFSLETSASTAYLQINNLKNEDTATYFCARGIYYYGSSYAMDYWGQGTSVTVSS
VL: PVEADDAATYYCQQNNEDPFTFGSGTKLEIKRNIQMTQTTSSLSASLGDRVTISCRASQDISNCLNWYQQKPDGTVKLLIYYTSRLHSGVPSRFSGSGSGTDYSLTISNLEQEDIATYFCQQGKTLPYAFGGGTKLEINRR
